The values below come from the supplement of paper PMC12764529.

Series [1] can be described thus: folding stability dG unfold from trypsin proteolysis; higher = more stable. An outline of the steps:
(§1)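 Designed mini-proteins (under 80 residues, no cysteine) in a PA-tagged cDNA display construct were digested with trypsin and chymotrypsin. Each protease was used at 11 concentrations (threefold dilutions) plus a no-protease condition, followed by sequencing. K50 was inferred by Bayesian fitting of sequencing counts, and unfolding free energy was derived against a sequence-predicted unfolded-state K50 and a shared folded-state K50, per protease or combined. Only designs with AlphaFold2 dimer inter-PAE above 15 were kept.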

Series [2] in a line: folding stability dG unfold from chymotrypsin proteolysis; higher = more stable. An outline of the steps: as §1
Series [3] is described as follows: folding stability dG unfold (combined trypsin and chymotrypsin); higher = more stable. An outline of the steps: as §1

± gives the half width of the 95% confidence interval.

As for “SAGGSAGGAPILPEVKKIGFEKLPNGEYKVTIYVKGGKKLAEITFPPNTTIEQAVEDAIEALKSSAGGSAGG [r6_435_TrMRF]”, the figures for the “folding stability dG unfold” value in series [1], in series [2] and in series [3] were 2.3 ± 0.063 kcal/mol, 2.38 ± 0.048 kcal/mol and 2.28 ± 0.091 kcal/mol, respectively.
The corresponding values for “SAGGSAGGAPLMIMLEAEWKREPDPNGDKRRKVKLRVSIMTPRPDPDGKPNMHMISIPITFKVKSAGGSAGG [r6_224_TrROS]” are 2.87 ± 0.087 kcal/mol, 4.08 ± 0.07 kcal/mol and 3.51 ± 0.2 kcal/mol.
The corresponding values for “SAGGSAGGAPPDARVTIEVELKNPDGTPISEEEVIEKLKPLGLEPVEIDVDPETGKVTITVRVLSAGGSAGG [r6_774_JUSTAS]” are 1.69 ± 0.053 kcal/mol, 1.04 ± 0.092 kcal/mol and 1.41 ± 0.083 kcal/mol.
The corresponding values for “SAGGSAGGDGPGAPPVPRIRIKVEFEHNGKKVTWEFRSLDDMKEQVKERFKENGLKVKITEIEWSAGGSAGG [r6_869_TrROS]” are 1.67 ± 0.06 kcal/mol, 2.04 ± 0.041 kcal/mol and 1.88 ± 0.1 kcal/mol.
For the sequence “SAGGSAGGDPRPVRVEVLRLEYDPPSGLLRALVRNPENDLLVFATLRIFPDPAGAELRVESVVFSAGGSAGG [r6_70_TrMRF]”, the “folding stability dG unfold” value is 1.39 ± 0.071 kcal/mol in series [1], 2.85 ± 0.1 kcal/mol in series [2] and 2.49 ± 0.11 kcal/mol in series [3].
As for “SAGGSAGGDSIEFIIPYDDMPKEEAKRRVRWIANGFAEHNPGKPIEIEIHVIPVPPPPSPEDKNSAGGSAGG [r6_729_TrROS]”, the “folding stability dG unfold” value is -0.0761 ± 0.16 kcal/mol in series [1], -0.467 ± 0.66 kcal/mol in series [2] and -0.163 ± 0.16 kcal/mol in series [3].
As for “SAGGSAGGDTITIWIPGMPLEELRDLLKAFFPGKDVSVEYDPEHGSFVLTVNGKKITIHIMPPNSAGGSAGG [r6_609_TrROS]”, the “folding stability dG unfold” value was 3.89 ± 0.1 kcal/mol in series [1], 4.45 ± 0.061 kcal/mol in series [2] and 4.45 ± 0.086 kcal/mol in series [3].
On to “SAGGSAGGDTVVIEVDMSEEEALALARALADAGKTVEIVVRDKDGRTRKITITVPPEELELPEESAGGSAGG [r6_62_TrROS_Hall]”, for which the results for the “folding stability dG unfold” value in series [1], in series [2] and in series [3] were 1.74 ± 0.019 kcal/mol, 2.11 ± 0.029 kcal/mol and 1.95 ± 0.042 kcal/mol, respectively.
Take “SAGGSAGGDYMMIKITNGSIKLMDGDDGKPIANLPPNQEITIMIPIKPPPPPEERKYDPNGKPKSAGGSAGG [r6_40_TrROS]”: the “folding stability dG unfold” value in series [1] is 0.515 ± 0.2 kcal/mol; in series [2] it was 1.24 ± 0.2 kcal/mol; in series [3], 0.799 ± 0.32 kcal/mol.
Turning to “SAGGSAGGDYVKIEIWIPPGMPDAEELVDKMSNYGFEIKKIERDPKNNYVRVTIVFQIPPGAIKSAGGSAGG [r6_604_TrROS]”, the entries for the “folding stability dG unfold” value in series [1], in series [2] and in series [3] were 1.67 ± 0.084 kcal/mol, 2.43 ± 0.067 kcal/mol and 2.26 ± 0.27 kcal/mol, respectively.
On the same counts, the results for “SAGGSAGGEDPNFTPPVKVYYLDLEIEVKPNEIEKLKEEFPDLEAEYEKLGDTYKVKLRIPVPVSAGGSAGG [r6_685_TrMRF]” are 1.51 ± 0.077 kcal/mol, 2.03 ± 0.12 kcal/mol and 1.85 ± 0.17 kcal/mol.
As for “SAGGSAGGEEEETVTLTLEVEVEAEVKVEKNADGEETEVEVKVKRVRVRLTLTLTKEELEKLLKSAGGSAGG [r6_119_TrROS_Hall]”, the “folding stability dG unfold” value in series [1] amounted to 2.59 ± 0.14 kcal/mol; in series [2] it was 4.17 ± 0.15 kcal/mol; in series [3] it was 3.54 ± 0.31 kcal/mol.
Take “SAGGSAGGEELLATATPVTVGDEVYYRFTIRNPDGTPIGDRLVPASVLSGYSPDTVITLPPDLLSAGGSAGG [r6_34_JUSTAS]”: the “folding stability dG unfold” value came out at 1.29 ± 0.024 kcal/mol in series [1], 0.784 ± 0.16 kcal/mol in series [2] and 1.04 ± 0.094 kcal/mol in series [3].
With “SAGGSAGGEGWRPLNVWIPFPDPKARLDEIVDMISKLFGWPIKIKITEVIPGDPDMIRVTIYVPSAGGSAGG [r6_211_TrROS]”, the results for the “folding stability dG unfold” value in series [1], in series [2] and in series [3] were 3.41 ± 0.11 kcal/mol, 3.53 ± 0.056 kcal/mol and 3.47 ± 0.091 kcal/mol, respectively.
As to “SAGGSAGGEKEYIIKIKLEMPNGREMKHWFPFKTVEQIKDQLRKLPDPNYKIDDVEIMPADELKSAGGSAGG [r6_297_TrROS]”, the figures for the “folding stability dG unfold” value in series [1], in series [2] and in series [3] were -0.237 ± 0.14 kcal/mol, 0.594 ± 0.15 kcal/mol and 0.263 ± 0.12 kcal/mol, respectively.
Turning to “SAGGSAGGEKKGKPPVKIVIKVRDVDTGETRTITLTIEPDMTVEEIRELLRALLPPGAEVEIVPSAGGSAGG [r6_440_TrROS_Hall]”, the “folding stability dG unfold” value came to 1.6 ± 0.052 kcal/mol in series [1], 3.45 ± 0.15 kcal/mol in series [2] and 3.08 ± 0.16 kcal/mol in series [3].
Regarding “SAGGSAGGELPPPPLLVVRVTVRRDGKELELELVVPSLEEALEALRALLPEEDLEIRVEVRLLPSAGGSAGG [r6_113_TrROS_Hall]”, the “folding stability dG unfold” value in series [1] came out at 2.12 ± 0.089 kcal/mol; in series [2], 2.92 ± 0.16 kcal/mol; in series [3], 2.67 ± 0.2 kcal/mol.
The corresponding values for “SAGGSAGGENNIEVYYVEVKVPDPSIPLSVVLEKLPLPPEFLTVTPVEVKPPDGTVLIAIYRDSSAGGSAGG [r6_955_TrMRF]” are 0.516 ± 0.02 kcal/mol, -0.0815 ± 0.14 kcal/mol and 0.409 ± 0.089 kcal/mol.
